Laboratory results taken from US20240317826A1, “COMPOSITIONS AND METHODS FOR TREATING AND/OR I[…] AGENT FOR TREATING HIV-1 INFECTIONS” (priority 2021, published 2024).
Where no end group is shown, it is not given here.

Experiments:
IN-INI1 interaction = target: T1, IN-INI1 interaction (Human immunodeficiency virus type 1 group M subtype B, UniProt P04585); assay: Alpha interaction assay: effect of stapled peptides on IN-INI1 interaction; format: binding, HIV-1; conditions: in vitro
T1 construct: made in house; host or cells: bacteria (E. coli inferred from the pGEX vector)
Method: (§1) FIG. 8A-FIG. 8D show quantitative alpha interaction assay to determine the effect of stapled peptides on the interaction of IN and IN-CTD with INI1 and INI1183-304 or TAR RNA. […] Fixed concentrations of GST-IN, 6His-INI1, and TAR RNA were incubated with increasing concentration of stapled peptides and the interaction was detected as Alpha Score. The IC50 values were determined by fitting the data to a four-parameter dose-response curve using Graph Pad prism. All the graphs represent the average of three independent experiments (Mean+/−SEM).
(§2) AlphaScreen proximity assay to detect the protein-protein and protein-RNA interactions. AlphaScreen assay was carried out using PerkinElmer Alpha-Lisa-6His Acceptor beads (Catalogue #AL128C), Alpha-Screen-GST donor beads (Catalogue #6765300), GST-tagged and His-tagged proteins for protein-protein interactions; and Alpha-Screen Streptavidin donor beads (Catalogue #6760002 S), Alpha-Lisa-GST acceptor beads (Catalogue #AL110C), Biotin-labeled RNA and GST-tagged proteins for protein-RNA interactions. The reaction was carried out according to the manufacturer's protocol in a reaction buffer contacting (25 mM HEPES pH 7.4, 100 mM NaCl (or 500 mM NaCl), 1 mM DTT, 1 mM MgCl2 and BSA 1 mg ml/ml). The mixture of proteins or protein and RNA were incubated for 1 hr at room temperate with shaking in a multi micro-plate shaker and then 20 ag ml/ml accepter beads were added and incubated for additional 1 h with shaking. Finally, 20 ag ml^−1 of donor beads were added and further incubated for 1 hr. The Alpha score readings were measured using Alpha-compatible Envision 2105 multi-plate reader (Perkin-Elmer). All the experiments related to this method were carried out 3 to 5 times and data were analyzed by using Graph Pad Prism 9 version 9.0.0 (GraphPad Software, CA). The RNA sequences used in this assay are listed in the Table 6d and were obtained from Integrated DNA technology.
(§3) These peptides were tested for their ability to disrupt the interaction between IN-INI1 and IN-TAR RNA in vitro.

IN-TAR RNA interaction = target: T2, IN-TAR RNA interaction (Human immunodeficiency virus type 1 group M subtype B, UniProt P04585); assay: Alpha interaction assay: effect of stapled peptides on IN-TAR RNA interaction; format: binding, HIV-1; conditions: in vitro
T2 construct: made in house; host or cells: bacteria (E. coli inferred from the pGEX vector)
Method: as §1, §2, §3

Substance	inhibition of IN-INI1 interactions (IN-INI1 interaction)	inhibition of IN-TAR RNA interactions (IN-TAR RNA interaction)	IC50, inhibition of IN-INI1 interactions (IN-INI1 interaction)	IC50, inhibition of IN-TAR RNA interactions (IN-TAR RNA interaction)
lys-Leu-Met-Thr-Pro-Glu-Met-Phe-Ser-Glu-Ile-Leu-Cys-Asp-Leu-Asn (KLMTPEMFSEILCDLN; not fully specified; printed as lys-Leu-Met-Thr-Pro-Glu-Met-Phe-Ser-Glu-Ile-Leu-Cys-Asp-Leu-Asn) [SP80, Linear peptide (without stapling) derived from Alpha helix 1 of INI1 Rpt-1 domain]	did not inhibit	did not inhibit	–	–
lys-Leu-Met-Thr-Pro-Glu-R8-Met-Phe-Glu-Ile-Leu-S5-Cys-Asp-Leu-Asn [SP39]	–	–	low nanomolar	low nanomolar
